These results are taken from FireProtDB (doi:10.1529/biophysj.106.101162).

For this data set the following is noted: Thermus thermophilus, 20 °C, GdnHCl, CD, Sodium acetate 50 mM, reversible: Yes, whole UniProt chain shown.

Where “and” joins values, the source holds several entries; their conditions need not be identical. Equal values may be shown once.

B1: Cytochrome c oxidase subunit 2 wild type, P98052 (protein)
chain: AYTLATHTAGVIPAGKLERVDPTTVRQEGPWADPAQAVVQTGPNQYTVYVLAFAFGYQPNPIEVPQGAEIVFKITSPDVIHGFHVEGTNINVEVLPGEVSTVRYTFKRPGEYRIICNQYCGLGHQNMFGTIVVKE
On to B1, for which the unfolding free energy is, setting by setting: (pH 3.5) 2.85 kcal/mol and 2.2 kcal/mol; (pH 4) 3.15 kcal/mol and 2.61 kcal/mol; (pH 4.5) 3.56 kcal/mol and 2.84 kcal/mol and 2.73 kcal/mol; (pH 5) 6.38 kcal/mol and 6.69 kcal/mol and 4.15 kcal/mol; (pH 5.5) 9.01 kcal/mol; (pH 6) 15.9 kcal/mol and 13.2 kcal/mol and 5.97 kcal/mol. In addition, the unfolding free energy (pH 7) is 20.2 kcal/mol and 15.4 kcal/mol.
